Laboratory results published in publication PMC6035183, “ETS transcription factors induce a unique UV damage signature that drives recurrent mutagenesis in melanoma”.

Columns and labels:
[1] = molecular target: T1, ETS1 (ETS1ΔN280) (UniProt P27577 280-440); assay: EMSA; 4 pmol DNA, 0-32 pmol ETS1; multiple shifted bands; 25 mM Tris-Cl pH 7.9, 10% glycerol, 6 mM MgCl2, 0.5 mM EDTA, 60 mM KCl, 0.5 mM DTT, 200 ug/ml BSA; 40 ul, 40 min on ice; 8% native PAGE; details: protein: recombinant; label: 5'-32P on S15 (TTCC strand); blunt
T1 sequence: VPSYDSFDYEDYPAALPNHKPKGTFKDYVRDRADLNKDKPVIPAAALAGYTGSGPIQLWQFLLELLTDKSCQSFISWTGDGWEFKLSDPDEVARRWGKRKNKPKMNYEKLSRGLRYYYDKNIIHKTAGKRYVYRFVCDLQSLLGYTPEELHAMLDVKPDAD

[2] = molecular target: T1, ETS1 (ETS1ΔN280); assay: EMSA; 4 pmol DNA, 0-32 pmol ETS1; two shifted bands at low ETS1; 25 mM Tris-Cl pH 7.9, 10% glycerol, 6 mM MgCl2, 0.5 mM EDTA, 60 mM KCl, 0.5 mM DTT, 200 ug/ml BSA; 40 ul, 40 min on ice; 8% native PAGE; details: protein: recombinant; label: 5'-32P on S14 (TTCC strand); blunt

B1: SDHD promoter fragment (dsDNA)
DNA 1: CTCGACTTCCGGTTCACCCAGCATTTCCTCTTCCCTGTT
DNA 2: AACAGGGAAGAGGAAATGCTGGGTGAACCGGAAGTCGAG
modifications: 5'-biotin on S16
B1: binds [1].

B2: RPL13A promoter fragment (dsDNA)
DNA 1: GTCCAATCCGGACATTCTTCCGGTTGGACC
DNA 2: GGTCCAACCGGAAGAATGTCCGGATTGGAC
modifications: 5'-biotin on S13
B2: binds [2].
